Source: patent US20100266614A1 (AstraZeneca / MedImmune, published 2010)
Residue numbers refer to the chain shown, from its start.

B1: clone 3 (PFFF) (Fab, V domains shown)
VH: QVTLRESGPALVKPTQTLTLTCTFSGFSLSTPGMSVGWIRQPPGKALEWLADIWWDDKKDYNPSLKSRLTISKDTSKNQVVLKVTNMDPADTATYYCARSMITNFYFDVWGQGTTVTVSS
VL: DIQMTQSPSTLSASVGDRVTITCSASSSVGYMHWYQQKPGKAPKLLIYDTFKLASGVPSRFSGSGSGTEFTLTISSLQPDDFATYYCFQGSFYPFTFGGGTKVEIK
notes: also called 3 (n = 3)
B2: clone 2 (AFFG) (Fab, V domains shown)
VH: B1 VH with P32A
VL: B1 VL with F92G
B3: clone 1 (AFSF) (Fab, V domains shown)
VH: B1 VH with P32A
VL: B1 VL with F51S
B4: clone 23 (AFFY) (Fab, V domains shown)
VH: B1 VH with P32A
VL: B1 VL with F92Y

These binders were tested against T1, RSV F protein (C-terminal truncated F protein secreted from a recombinant baculovirus) (respiratory syncytial virus (RSV), UniProt P03420 26-524) (assay: ELISA titration of antibody on 500 ng RSV F antigen; qualitative score from titration curves).
T1 construct: also called F antigen; RSV F antigen
T1 sequence (P03420 26-109, chain 1 of 2): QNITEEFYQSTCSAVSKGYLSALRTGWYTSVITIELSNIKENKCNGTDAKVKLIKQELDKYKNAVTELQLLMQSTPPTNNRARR
T1 sequence (P03420 137-524, chain 2 of 2): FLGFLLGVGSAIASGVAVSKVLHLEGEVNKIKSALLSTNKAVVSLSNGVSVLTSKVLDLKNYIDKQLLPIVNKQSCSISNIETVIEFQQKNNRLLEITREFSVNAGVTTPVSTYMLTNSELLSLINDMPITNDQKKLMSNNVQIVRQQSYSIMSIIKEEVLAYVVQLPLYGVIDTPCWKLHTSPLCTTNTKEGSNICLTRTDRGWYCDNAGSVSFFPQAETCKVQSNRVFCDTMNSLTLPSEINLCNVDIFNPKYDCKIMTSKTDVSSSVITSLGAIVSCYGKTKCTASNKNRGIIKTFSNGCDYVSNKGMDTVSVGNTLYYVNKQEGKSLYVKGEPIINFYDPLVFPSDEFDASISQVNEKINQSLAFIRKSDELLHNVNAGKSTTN

Binder | Ag Score [arbitrary score 0-4]
B1 | 4
B2 | 4
B3 | 4

Each binder was assayed against T1, RSV F protein (C-terminal truncated F …) (assay: SPR (BIAcore), F protein immobilized by EDC/NHS, Fab injected; kon and koff measured separately).

Binder | koff [s⁻¹] | kon [M⁻¹ s⁻¹]
B1 | 1.35e-06 | 110000
B4 | 3.03e-07 | 122000
B2 | 1.82e-06 | 133000
B3 | 1.62e-06 | 113000

Each binder was assayed against T1, RSV F protein (C-terminal truncated F …) (assay: SPR (BIAcore), from the kinetic constants of Table 4).

Binder | Kd [nM]
B1 | ~0.0123
B4 | ~0.0025
B2 | ~0.0137
B3 | ~0.0143

Each binder was assayed against T1, RSV F protein (C-terminal truncated F …) (assay: SPR (BIAcore), F protein immobilized by EDC/NHS, Fab injected; calculated from the rate constants).

Binder | Ka [M⁻¹]
B1 | 8.15e+10
B4 | 4.03e+11
B2 | 7.31e+10
B3 | 6.98e+10
